B1: GA-binding protein alpha chain, residues 172 to 250; numbered along this chain, Q06546 (parent)
chain: GYRKEQERLGIPYDPIQWSTDQVLHWVVWVMKEFSMTDIDLTTLNISGRELCSLNQEDFFQRVPRGEILWSHLELLRKY

Variants of: B1
Experiment: abundance fitness (aPCA) (normalised: wild type 0, dead -1); higher = more abundant; growth selection in yeast, the domain comes from the species named
Details: Homo sapiens

Abundance fitness, by site and new letter:
V63: G -0.218 | F 0.018 | A -0.075 | M -0.113 | I -0.077 | W -0.042 | P -0.667 | C -0.012 | E -0.563 | D -0.667 | R -1.06 | N -0.384 | Y -0.221 | H -0.886 | T -0.172 | L -0.073 | Q -0.235 | K -0.864
E57: A 0.011 | G -0.045 | N -0.192 | I -0.153 | T -0.068 | V -0.081 | C -0.058 | Q -0.046 | K -0.122 | L -0.076 | S -0.051 | P -0.098 | Y 0.009 | W -0.135 | H -0.023 | D -0.063 | M -0.139 | R -0.082
D58: N -0.188 | S 0.003 | K -0.129 | R -0.092 | Q -0.03 | W -0.19 | V -0.091 | C -0.177 | G -0.071 | E -0.095 | A -0.041 | P -0.943 | T -0.053 | Y -0.165 | L -0.087 | I -0.022 | M -0.004 | H -0.149
I68: L -0.037 | V -0.021 | S -0.076 | W -0.115 | M -0.091 | Y -0.037 | G -0.087 | P 0.023 | Q -0.077 | H -0.095 | E -0.044 | F -0.053 | A 0.017 | T -0.065 | C -0.055 | N -0.194
G66: I -0.772 | T -0.735 | C -0.298 | R -0.562 | K -0.728 | M -0.967 | S -0.199 | P -0.019 | V -0.835 | A -0.025 | D -0.889 | L -0.795 | Q -0.773 | H -0.608
E67: N -0.077 | L -0.249 | K 0.064 | H 0.004 | R -0.101 | S -0.057 | D -0.133 | C -0.19 | Q -0.121 | W -0.153 | G -0.027 | P -0.239 | V -0.118 | A -0.029 | F -0.249 | I -0.189 | T -0.038 | M -0.147
F60: Q -0.053 | W -0.211 | M 0.121 | G -0.101 | H -0.118 | N -0.183 | T -0.044 | P -0.527 | C -0.088 | R 0.003 | Y -0.06 | L 0.033 | V 0.049 | E -0.074 | K -0.048 | S 0 | I 0.039 | A -0.03
R62: W -0.314 | G -0.426 | S -0.156 | A -0.132 | Y -0.133 | P -1.06 | K -0.014 | H -0.213 | L 0.008 | Q -0.106 | M 0.07 | E -0.197 | T -0.194 | F -0.192 | C -0.143 | V -0.039 | D -0.797
P64: W -0.67 | K -0.159 | E -0.23 | A -0.295 | M -0.952 | G -0.158 | T -0.333 | F -0.611 | Q -0.266 | V -0.406 | N -0.177 | S -0.219 | C -0.288 | Y -0.744 | I -0.554 | D -0.738
E50: Y -0.117 | S -0.291 | A -0.074 | R -0.249 | C -0.088 | N -0.252 | L -0.201 | W -0.672 | D -0.041 | M -0.24 | P -0.94 | H -0.2 | I -0.156 | K -0.041 | Q 0.013 | G -0.594
Q61: G -0.029 | L -0.009 | D -0.155 | A -0.014 | T 0.014 | W -0.298 | Y -0.203 | I -0.178 | V -0.01 | S 0.004 | M -0.022 | P -0.777 | E -0.041 | C -0.091 | R -0.011 | K -0.016
F59: P -1.02 | H -0.931 | N -0.74 | V -0.803 | I -0.507 | L -0.424 | E -0.954 | R -0.552 | T -1.02 | A -0.813 | G -0.888 | C -0.972 | K -0.815 | W -0.263 | S -0.626 | Y -0.853
Q56: M -0.107 | P -0.178 | D -0.262 | W -0.351 | A -0.044 | Y 0.025 | F -0.087 | L -0.291 | T -0.132 | C -0.162 | V -0.184 | E -0.015 | H -0.049 | I -0.133 | R -0.008 | G -0.245 | N -0.455 | K -0.004
N55: S 0.012 | P -0.039 | M -0.291 | D 0.008 | H -0.124 | I -0.244 | E -0.037 | V -0.148 | C -0.124 | L -0.252 | W -0.782 | Y -0.274 | A -0.065 | R -0.014 | G -0.02 | T -0.025 | F -0.712 | K -0.189
R49: P 0.001 | E 0.041 | Y -0.077 | N -0.257 | G -0.125 | K -0.086 | V -0.082 | F -0.113 | M 0.042 | W -0.143 | I -0.203 | D -0.1 | H -0.152 | C -0.109 | S -0.006 | Q -0.021 | T -0.085 | L -0.072
L54: S -0.693 | K -0.649 | I -0.157 | Y -0.273 | G -0.791 | E -0.484 | F -0.051 | D -0.842 | Q -0.446 | W -0.021 | C -0.374 | H -0.486 | V -0.341 | R -0.682 | M -0.009
L69: A -0.311 | D -0.758 | E -0.934 | F -0.027 | C -0.57
R65: N -0.07 | Y -0.033 | A -0.003 | L -0.141 | H -0.111 | C -0.004 | M -0.127 | F -0.177 | V -0.157 | K -0.013 | G 0.007 | E 0.033 | D 0.084 | P -0.455
L51: R -0.813 | Q -0.951 | H -0.928 | I -0.374 | K -1.13 | G -0.92 | E -0.818 | T -0.825 | D -0.786 | N -0.897 | V -0.652 | A -0.982 | M -0.163 | P -0.746 | W -1.04 | F -0.815
C52: E -0.457 | T -0.226 | P -1.03 | A -0.22 | Q -0.615 | K -0.887 | Y -0.431 | G -0.575 | I 0.076 | V -0.122 | F -0.333 | L -0.077 | N -0.47 | S -0.335
S53: L -0.108 | H -0.171 | W -0.381 | D 0.076 | A -0.063 | T -0.144 | N -0.033 | V -0.331 | P -0.522 | R -0.057 | G -0.068 | F -0.269 | C -0.061 | Q -0.085 | M -0.121
